Data taken from patent US20260015399A1 (Boehringer Ingelheim, published 2026).
*1 amine or outer side, *2 acyl side, *3 side chain or, on linkers, in order; H or OH if unused. Side-chain parts run from the residue outwards. The star is where a group is joined. C18 diacid = O=C(O)CCCCCCCCCCCCCCCCC(=O)*; γGlu = O=C(O)[C@H](CCC(=O)[*:2])N[*:1]; Isovaleryl = CC(C)CC(=O)*; Ahx = NCCCCCC(=O)O

T1: human NPY2 receptor (human, UniProt P49146 1-381)
T1 construct: whole, on cells; also called hNPY2-R; hNPY2R
T1 sequence (looked up): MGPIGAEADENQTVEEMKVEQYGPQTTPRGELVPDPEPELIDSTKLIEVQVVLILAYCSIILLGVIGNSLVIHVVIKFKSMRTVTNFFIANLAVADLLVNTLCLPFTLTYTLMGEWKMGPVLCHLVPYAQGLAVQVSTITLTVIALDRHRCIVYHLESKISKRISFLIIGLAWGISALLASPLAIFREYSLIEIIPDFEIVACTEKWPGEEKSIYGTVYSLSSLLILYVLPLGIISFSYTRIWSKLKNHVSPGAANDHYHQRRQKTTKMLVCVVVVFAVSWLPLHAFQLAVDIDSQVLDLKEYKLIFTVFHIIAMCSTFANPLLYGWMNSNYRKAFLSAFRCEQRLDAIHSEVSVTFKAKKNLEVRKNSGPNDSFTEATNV


Molecular target: T1, human NPY2 receptor
Assay: RLB: displacement of 125I-PYY(1-36) from hNPY2R membranes

Binder | Ki [nM]
Isovaleryl-APEK([Ahx-γGlu-C18 diacid])PEEDSSPEELQRYYVALRHYYNWLTRQRY-NH2 (SMILES CC(C)CC(=O)N[C@@H](C)C(=O)N1CCC[C@H]1C(=O)N[C@@H](CCC(=O)O)C(=O)N[C@@H](CCCCNC(=O)CCCCCNC(=O)CC[C@H](NC(=O)CCCCCCCCCCCCCCCCC(=O)O)C(=O)O)C(=O)N1CCC[C@H]1C(=O)N[C@@H](CCC(=O)O)C(=O)N[C@@H](CCC(=O)O)C(=O)N[C@@H](CC(=O)O)C(=O)N[C@@H](CO)C(=O)N[C@@H](CO)C(=O)N1CCC[C@H]1C(=O)N[C@@H](CCC(=O)O)C(=O)N[C@@H](CCC(=O)O)C(=O)N[C@@H](CC(C)C)C(=O)N[C@@H](CCC(N)=O)C(=O)N[C@@H](CCCNC(=N)N)C(=O)N[C@@H](Cc1ccc(O)cc1)C(=O)N[C@@H](Cc1ccc(O)cc1)C(=O)N[C@H](C(=O)N[C@@H](C)C(=O)N[C@@H](CC(C)C)C(=O)N[C@@H](CCCNC(=N)N)C(=O)N[C@@H](Cc1c[nH]cn1)C(=O)N[C@@H](Cc1ccc(O)cc1)C(=O)N[C@@H](Cc1ccc(O)cc1)C(=O)N[C@@H](CC(N)=O)C(=O)N[C@@H](Cc1c[nH]c2ccccc12)C(=O)N[C@@H](CC(C)C)C(=O)N[C@H](C(=O)N[C@@H](CCCNC(=N)N)C(=O)N[C@@H](CCC(N)=O)C(=O)N[C@@H](CCCNC(=N)N)C(=O)N[C@@H](Cc1ccc(O)cc1)C(N)=O)[C@@H](C)O)C(C)C, printed structure identical to Compound 24) [Compound 151] | 1.68
Isovaleryl-APEK([Ahx-γGlu-C18 diacid])PEEDATPEETQRYYVSLRHYYNWLTRQRY-NH2 (SMILES CC(C)CC(=O)N[C@@H](C)C(=O)N1CCC[C@H]1C(=O)N[C@@H](CCC(=O)O)C(=O)N[C@@H](CCCCNC(=O)CCCCCNC(=O)CC[C@H](NC(=O)CCCCCCCCCCCCCCCCC(=O)O)C(=O)O)C(=O)N1CCC[C@H]1C(=O)N[C@@H](CCC(=O)O)C(=O)N[C@@H](CCC(=O)O)C(=O)N[C@@H](CC(=O)O)C(=O)N[C@@H](C)C(=O)N[C@H](C(=O)N1CCC[C@H]1C(=O)N[C@@H](CCC(=O)O)C(=O)N[C@@H](CCC(=O)O)C(=O)N[C@H](C(=O)N[C@@H](CCC(N)=O)C(=O)N[C@@H](CCCNC(=N)N)C(=O)N[C@@H](Cc1ccc(O)cc1)C(=O)N[C@@H](Cc1ccc(O)cc1)C(=O)N[C@H](C(=O)N[C@@H](CO)C(=O)N[C@@H](CC(C)C)C(=O)N[C@@H](CCCNC(=N)N)C(=O)N[C@@H](Cc1c[nH]cn1)C(=O)N[C@@H](Cc1ccc(O)cc1)C(=O)N[C@@H](Cc1ccc(O)cc1)C(=O)N[C@@H](CC(N)=O)C(=O)N[C@@H](Cc1c[nH]c2ccccc12)C(=O)N[C@@H](CC(C)C)C(=O)N[C@H](C(=O)N[C@@H](CCCNC(=N)N)C(=O)N[C@@H](CCC(N)=O)C(=O)N[C@@H](CCCNC(=N)N)C(=O)N[C@@H](Cc1ccc(O)cc1)C(N)=O)[C@@H](C)O)C(C)C)[C@@H](C)O)[C@@H](C)O) [Compound 152] | 1.32
